Legend:
[1] = target: T1, MET-Fc (extracellular MET domain fused with human IgG1-Fc) (human, UniProt P08581 25-932); assay: AlphaScreen saturation assay: K1B on streptavidin donor beads, MET-Fc on Protein A acceptor beads
T1 construct: extracellular domain; Recombinant chimera; also called recombinant extracellular MET-Fc chimera; hMET-Fc; not shown: human IgG1 Fc
Description: (§1) FIG. 4. K1B and NB MET binding properties. (a) Structure of NK1 dimer (center, PDB 1BHT) and spatial relative orientation of each N (left) and K1 (right) monomers within the dimer. Dashed arrows indicate distances between subdomain C-termini. (b) NB, K1B and MET-Fc binding assay. Increasing concentrations of NB or K1B were mixed with extracellular MET domain fused with human IgG1-Fc (MET-Fc), and incubated with streptavidin AlphaScreen donor beads and Protein A acceptor beads. Error bars correspond to standard error (+/−SD) of triplicates. (c) Endogenous MET capture. Streptavidin coated beads loaded with NB or K1B were incubated with HeLa or Capan-1 total cell lysates. Input, flow-through and elution fractions from NB or K1 loaded beads were analyzed by specific total MET western blot.
(§2) The binding of K1B/S complexes to MET was examined using AlphaScreen technology. K1B was loaded on streptavidin-coated donor beads and incubated with recombinant extracellular MET-Fc chimera loaded on Protein A-coated acceptor beads. If K1B/S donor beads interact with MET-Fc/Protein A acceptor beads, a chemical energy transfer is possible between the beads, leading to fluorescence emission upon laser excitation. […]

[2] = target: T1, MET-Fc (extracellular MET domain fused …); assay: AlphaScreen saturation assay: K1B on streptavidin-coated donor beads, MET-Fc on Protein A-coated acceptor beads (apparent, multivalent display); saturation assay; K1B on streptavidin-coated donor beads (apparent KD, avidity possible)
Description: as §1, §2

[3] = target: T1, MET-Fc (extracellular MET domain fused …); assay: AlphaScreen saturation assay; the reference is a literature value that is not given
Description: as §1, with “Dashed” for “FIG. 4. K1B and NB MET binding properties. (a) Structure of NK1 dimer (center, PDB 1BHT) and spatial relative orientation of each N (left) and K1 (right) monomers within the dimer. Dashed”
The binding of K1B/S complexes to MET was examined using AlphaScreen technology. K1B was loaded on streptavidin-coated donor beads and incubated with recombinant extracellular MET-Fc chimera loaded on Protein A-coated acceptor beads. If K1B/S donor beads interact with MET-Fc/Protein A acceptor beads, a chemical energy transfer is possible between the beads, leading to fluorescence emission upon laser excitation. […] Since the bead-based AlphaScreen assay can generate avidity and thus introduce a bias in the estimation of the apparent KD in saturation experiments, it was performed the reciprocal competition assay by adding increasing concentrations of preformed K1B/S complex (2:1 molar ratio) into the K1B/MET-Fc/AlphaScreen bead mixture (FIG. 6). […]

[4] = target: T2, endogenous MET receptor of human cells (HeLa, Capan-1) (human, UniProt P08581 25-1390); assay: pull-down of endogenous MET from HeLa and Capan-1 total cell lysates on streptavidin beads loaded with NB, total MET western blot
T2 construct: whole, on cells; On living HeLa cells in the signalling assays; from whole cell lysates of HeLa or Capan-1 cells in the capture experiment; also called tyrosine kinase receptor MET
T2 sequence (P08581 25-1390): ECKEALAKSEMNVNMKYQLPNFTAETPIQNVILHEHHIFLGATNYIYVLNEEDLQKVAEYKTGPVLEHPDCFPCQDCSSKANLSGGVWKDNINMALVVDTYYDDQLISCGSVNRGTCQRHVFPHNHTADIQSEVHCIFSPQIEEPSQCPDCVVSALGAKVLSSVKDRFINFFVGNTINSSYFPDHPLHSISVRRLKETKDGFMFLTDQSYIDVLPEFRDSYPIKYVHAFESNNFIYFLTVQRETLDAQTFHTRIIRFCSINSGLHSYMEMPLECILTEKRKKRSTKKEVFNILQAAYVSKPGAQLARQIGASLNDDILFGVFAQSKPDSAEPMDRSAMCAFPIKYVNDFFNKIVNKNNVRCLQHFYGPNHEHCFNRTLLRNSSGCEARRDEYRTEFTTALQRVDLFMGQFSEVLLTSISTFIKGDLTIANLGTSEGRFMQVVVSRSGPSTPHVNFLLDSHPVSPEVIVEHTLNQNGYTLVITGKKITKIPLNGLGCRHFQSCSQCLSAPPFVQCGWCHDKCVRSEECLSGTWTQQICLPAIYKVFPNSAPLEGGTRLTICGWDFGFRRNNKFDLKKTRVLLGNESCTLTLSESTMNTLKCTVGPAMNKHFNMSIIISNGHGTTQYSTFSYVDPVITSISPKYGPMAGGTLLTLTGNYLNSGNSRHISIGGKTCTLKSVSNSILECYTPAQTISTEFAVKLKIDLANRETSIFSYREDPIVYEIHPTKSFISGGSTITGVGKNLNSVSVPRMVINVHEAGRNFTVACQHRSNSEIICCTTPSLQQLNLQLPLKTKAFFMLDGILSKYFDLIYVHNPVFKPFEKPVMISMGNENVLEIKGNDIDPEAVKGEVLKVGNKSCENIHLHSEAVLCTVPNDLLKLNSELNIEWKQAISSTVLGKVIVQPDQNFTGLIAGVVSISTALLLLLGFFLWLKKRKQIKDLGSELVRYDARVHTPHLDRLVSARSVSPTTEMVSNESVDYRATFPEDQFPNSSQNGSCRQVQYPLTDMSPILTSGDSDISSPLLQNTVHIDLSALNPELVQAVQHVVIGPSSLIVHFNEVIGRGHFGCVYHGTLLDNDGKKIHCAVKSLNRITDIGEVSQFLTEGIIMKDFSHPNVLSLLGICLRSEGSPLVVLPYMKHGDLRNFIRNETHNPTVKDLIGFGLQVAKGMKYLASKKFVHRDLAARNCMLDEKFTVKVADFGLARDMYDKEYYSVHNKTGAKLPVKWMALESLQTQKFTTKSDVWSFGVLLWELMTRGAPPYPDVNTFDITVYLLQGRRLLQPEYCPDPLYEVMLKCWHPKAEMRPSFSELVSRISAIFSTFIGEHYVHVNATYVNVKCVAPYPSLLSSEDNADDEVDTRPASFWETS
Description: as §1
HeLa and Capan-1 cells were collected by scraping and then lysed on ice with a lysis buffer (20 mM Tris HCl, 50 mM NaCl, 5 mM EDTA and 1% Triton X-100). Lysates were clarified by centrifugation (20,000 g×15 min) and protein concentration was determined (BCA protein assay Kit, Pierce®, Thermo scientific, IL, USA). Streptavidin-Sepharose beads (GE Healthcare) were washed and equilibrated in PBS. Beads were loaded with 15 μg K1B or NB (100 μl beads in a 50:50 PBS:bead slurry) for 20 min at room temperature and immediately washed with PBS. […] Elution fractions were then analyzed by western blotting.

[5] = target: T1, MET-Fc (extracellular MET domain fused …); assay: AlphaScreen saturation assay: NB on streptavidin donor beads, MET-Fc on Protein A acceptor beads
Description: as §1, §2

T1 sequence (P08581 25-932): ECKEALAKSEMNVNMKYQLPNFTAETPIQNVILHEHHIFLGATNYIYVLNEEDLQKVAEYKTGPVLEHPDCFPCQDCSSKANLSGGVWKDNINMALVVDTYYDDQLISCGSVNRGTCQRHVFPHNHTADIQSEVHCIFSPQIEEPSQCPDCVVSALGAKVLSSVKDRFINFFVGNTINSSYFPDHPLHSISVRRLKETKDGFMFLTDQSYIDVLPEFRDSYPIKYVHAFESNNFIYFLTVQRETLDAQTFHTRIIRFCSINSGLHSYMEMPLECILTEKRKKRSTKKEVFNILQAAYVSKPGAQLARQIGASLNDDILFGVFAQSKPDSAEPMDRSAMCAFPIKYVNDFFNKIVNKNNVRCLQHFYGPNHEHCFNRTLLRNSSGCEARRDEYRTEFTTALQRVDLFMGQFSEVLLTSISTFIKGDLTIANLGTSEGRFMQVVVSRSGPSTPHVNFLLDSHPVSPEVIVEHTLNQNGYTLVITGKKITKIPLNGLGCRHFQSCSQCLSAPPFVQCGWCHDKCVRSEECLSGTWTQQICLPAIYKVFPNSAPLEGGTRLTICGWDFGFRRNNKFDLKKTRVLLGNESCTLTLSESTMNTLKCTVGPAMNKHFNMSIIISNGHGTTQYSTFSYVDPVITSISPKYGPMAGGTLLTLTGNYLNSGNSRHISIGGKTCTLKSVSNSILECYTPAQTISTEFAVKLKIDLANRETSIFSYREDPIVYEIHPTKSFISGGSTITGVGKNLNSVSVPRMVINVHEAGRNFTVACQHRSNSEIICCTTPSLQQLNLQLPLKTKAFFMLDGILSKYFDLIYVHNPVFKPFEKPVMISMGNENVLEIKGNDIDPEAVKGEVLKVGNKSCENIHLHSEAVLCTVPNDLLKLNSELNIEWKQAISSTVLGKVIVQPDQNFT

EC50 (read off the curve) [1] [nM]	Kd [2] [nM]	fold lower apparent KD than the KD reported for monomeric K1 protein-MET interaction [3] [fold]	binding result [4]	binding result [5]	Binder
~20	~16	~100			K1B (biotinylated K1 domain of HGF/SF, residues 125-209 with C-terminal GGK(biotin) extension) (ligand, C-terminal lysine of the GGK extension modified on its side chain with a biotin group; three native disulfide bonds, also called K1-Biot; biotinylated version of the K1 domain) IRNCIIGKGRSYKGTVSITKSGIKCQPWSSMIPHEHSFLPSSYRGKDLQENYCRNPRGEEGGPWCFTSNPEVRYEVCDIPQCSEVGGK
			no binding	no binding (tested: 300 nM)	NB (ligand, human, UniProt P14210 31-127, looked up, biotinylated; the site is not stated for NB, isolated N domain, chemically synthesised and biotinylated, not pre-mixed with soluble streptavidin; It is distinct from m9, the NB/S complex pre-mixed 2:1 with streptavidin; In both assays NB is presented on streptavidin-coated beads; also called biotinylated N domain of HGF/SF) single chain: GQRKRRNTIHEFKKSAKTTLIKIDPALKIKTKKVNTADQCANRCTRNKGLPFTCKAFVFDKARKQCLWFPFNSMSSGVKKEFGHEFDLYENKDYIRN

Reference: patent US20180008723A1 (UNIVERSITE DES SCIENCES ET TECHNOLOGIES DE LILLE LILLE 1, published 2018)
